Holding throughout (assay): flow cytometry on cells
One test deals with T1, B7 QD/LE (Q194L, D195E) (mouse, UniProt Q00609 38-306, Q194D195>LE).
T1 sequence (looked up): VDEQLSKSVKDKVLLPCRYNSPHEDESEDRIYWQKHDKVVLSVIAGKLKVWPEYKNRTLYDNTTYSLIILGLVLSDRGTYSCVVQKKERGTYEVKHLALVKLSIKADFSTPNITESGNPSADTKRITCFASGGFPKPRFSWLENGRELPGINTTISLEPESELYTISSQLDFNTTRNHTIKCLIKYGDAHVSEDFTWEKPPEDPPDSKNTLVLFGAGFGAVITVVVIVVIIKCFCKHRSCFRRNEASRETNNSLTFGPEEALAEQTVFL

The target in another test is T2, B7 LE/VD (L179V, E180D) (mouse, UniProt Q00609 38-306, L179E180>VD).
T2 sequence (looked up): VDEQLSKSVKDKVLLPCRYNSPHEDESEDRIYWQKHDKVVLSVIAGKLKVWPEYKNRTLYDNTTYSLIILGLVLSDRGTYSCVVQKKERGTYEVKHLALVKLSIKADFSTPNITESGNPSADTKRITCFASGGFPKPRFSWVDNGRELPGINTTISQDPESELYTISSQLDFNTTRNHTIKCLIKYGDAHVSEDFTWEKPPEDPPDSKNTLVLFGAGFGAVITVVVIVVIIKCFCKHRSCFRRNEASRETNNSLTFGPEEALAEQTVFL

Another test addresses T3, B7 S177A (mouse, UniProt Q00609 38-306, S177A).
T3 sequence (looked up): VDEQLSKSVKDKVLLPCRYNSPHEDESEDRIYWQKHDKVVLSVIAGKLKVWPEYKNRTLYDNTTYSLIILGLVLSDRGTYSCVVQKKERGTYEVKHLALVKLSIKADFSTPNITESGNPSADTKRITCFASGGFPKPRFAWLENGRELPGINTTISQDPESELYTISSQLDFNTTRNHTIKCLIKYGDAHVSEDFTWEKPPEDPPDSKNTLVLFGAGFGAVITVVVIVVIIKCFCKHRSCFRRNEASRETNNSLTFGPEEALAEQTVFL

The target of another test is T4, B7 R175S (mouse, UniProt Q00609 38-306, R175>S (CGC>AGC)).
T4 sequence (looked up): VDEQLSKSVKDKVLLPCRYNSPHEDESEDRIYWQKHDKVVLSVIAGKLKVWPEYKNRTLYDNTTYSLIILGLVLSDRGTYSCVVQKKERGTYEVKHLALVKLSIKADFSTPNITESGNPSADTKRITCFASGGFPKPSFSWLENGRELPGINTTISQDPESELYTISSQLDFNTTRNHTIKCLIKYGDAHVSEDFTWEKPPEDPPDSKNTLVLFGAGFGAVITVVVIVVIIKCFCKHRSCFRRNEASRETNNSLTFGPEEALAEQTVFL

In another test the target is T5, B7 E180D (mouse, UniProt Q00609 38-306, E180D).
T5 sequence (looked up): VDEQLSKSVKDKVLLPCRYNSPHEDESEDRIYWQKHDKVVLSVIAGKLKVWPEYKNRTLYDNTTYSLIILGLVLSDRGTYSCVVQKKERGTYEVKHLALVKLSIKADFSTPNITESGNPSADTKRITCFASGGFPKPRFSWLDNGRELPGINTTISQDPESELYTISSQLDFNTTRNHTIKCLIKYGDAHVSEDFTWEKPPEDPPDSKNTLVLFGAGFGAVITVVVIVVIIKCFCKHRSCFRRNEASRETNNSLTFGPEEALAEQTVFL

For a further test, the target named is T6, B7 P172A (mouse, UniProt Q00609 38-306, P172A).
T6 sequence (looked up): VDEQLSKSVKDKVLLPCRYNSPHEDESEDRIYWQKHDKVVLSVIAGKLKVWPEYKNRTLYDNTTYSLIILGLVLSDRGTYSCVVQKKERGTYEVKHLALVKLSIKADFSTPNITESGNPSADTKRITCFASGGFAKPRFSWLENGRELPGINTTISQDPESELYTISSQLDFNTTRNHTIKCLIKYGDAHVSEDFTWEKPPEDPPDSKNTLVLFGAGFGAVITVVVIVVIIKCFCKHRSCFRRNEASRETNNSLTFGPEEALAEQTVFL

B1: CD28Ig (Fc fusion, mouse, UniProt P31041 20-150, looked up)
chain: NKILVKQSPLLVVDSNEVSLSCRYSYNLLAKEFRASLYKGVNSDVEVCVGNGNFTYQPQFRSNAEFNCDGDFDNETVTFRLWNLHVNHTDIYFCKIEFMYPPPYLDNERSNGTIIHIKEKHLCHTQSSPKL
Take B1: the “% wild-type B7 binding (normalised to anti-B7 mAb 10.16A.1)” value with B7 QD/LE (Q194L, D195E) was determined as 11%; with B7 LE/VD (L179V, E180D), 40%; with B7 S177A, 63%; with B7 R175S it was 26%; with B7 E180D, 68%; with B7 P172A, 7%. Moreover, the “MF (mean fluorescence, control subtracted)” value with B7 QD/LE (Q194L, D195E) turned out to be 3 MF; in the test with B7 LE/VD (L179V, E180D), 16 MF; with B7 S177A it was 40 MF; with B7 R175S, 15 MF; with B7 E180D it was 38 MF; in the test with B7 P172A it was 2 MF.
